# Test results published in patent US20180282403A1, “AGENTS FOR REDUCING THE ACTIVITY OF GDF15” (GENAGON THERAPEUTICS AB, priority 2015, published 2018).
# Legend:
# Assay type in all cases: cell-based
# QRFPR [1] = molecular target: T1, QRFPR (Homo sapiens, UniProt Q96P65); assay: In situ PLA detection of EEA1-QRFPR proximity; conditions: GDF15 5 min; FIG. 3C-D
# T1 construct: endogenous in cells
# T1 sequence (Q96P65 1-431): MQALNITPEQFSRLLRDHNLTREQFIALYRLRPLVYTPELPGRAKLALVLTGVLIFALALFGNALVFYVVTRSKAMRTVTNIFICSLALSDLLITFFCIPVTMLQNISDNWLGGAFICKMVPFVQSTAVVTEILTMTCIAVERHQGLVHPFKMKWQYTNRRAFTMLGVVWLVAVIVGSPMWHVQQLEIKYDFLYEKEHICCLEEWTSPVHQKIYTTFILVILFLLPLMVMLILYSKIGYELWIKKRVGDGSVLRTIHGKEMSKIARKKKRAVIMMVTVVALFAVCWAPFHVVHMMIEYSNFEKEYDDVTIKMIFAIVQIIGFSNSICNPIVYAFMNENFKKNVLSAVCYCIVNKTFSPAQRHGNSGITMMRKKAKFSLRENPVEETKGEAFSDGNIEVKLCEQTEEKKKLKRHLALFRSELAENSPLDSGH
# From the text: […] (EEA1) is a marker for rapid endosome formation, and an assay was developed to detect the proximity of EEA1 and QRFPR. In the absence of GDF15, no signal was obtained (FIG. 3C).
# QRFPR [2] = assay: In situ PLA detection of RAB11-QRFPR double positive endosomes in MCF7 cells; conditions: GDF15 stimulation alone; FIG. 5
# From the text: The RAB11 protein is a marker for recycling endosomes back to the cell surface, and the RAB11 pathway is also involved in exosome assembly (Savina et al., 2005; Savina et al., 2002). RAB11 was thus thought to be a likely candidate to be involved in QRFPR reduction on the cell surface induced by GDF15
# An in situ PLA assay was developed to detect the proximity of RAB11 and QRFPR. In the absence of GDF15, only a low signal is observed (FIGS. 5A and 5C).
# We choose to use this assay as a way to investigate if the activity of GDF15 could be inhibited by various agents. […] GDF15-induced formation of RAB11/QRFPR endosomes is inhibited by QRFPR peptides (FIG. 9A-D). Equal amounts of a mastermix of GDF15 was aliquoted and pre-incubated in PBS with the various receptor fragment before addition to cells. Sequentially, the cells were treated with either PBS, GDF15 or GDF15/QRFPR-derived peptide mixes.
# QRFPR [3] = molecular target: T1, QRFPR; assay: Western blot of QRFPR positive exosomes from conditioned medium of MCF-7 cells; conditions: MCF-7 cells exposed to GDF15 vs not exposed; FIG. 1B
# Method: Conditioned cell culture media were sequentially centrifuged for 5 min at 3,000 x g to pellet the cells and then at 10,000×g for 10 min to further remove cells and cell debris. The supernatant was then filtered through a 0.45 μm filter and then finally pelleted at 100,000×g for 2 h at 4° c. Pelleted exosomes were resuspended in PBS and protease inhibitor (complete mini, Roche) was added. The samples were then prepared for further analyses as described elsewhere.
# Material from the ultracentrifuged pellet was separated on a 12.5% SDS-PAGE gel (Biorad) at 150 v for 80 min, wet transferred to a Immobilon K membrane, blocked with 5% BSA for 1 h RT, and incubated with the corresponding QRFPR antibodies o/n at +4 with mild agitation. The membranes were washed with TBST, and the corresponding secondary antibodies, conjugated to horse radish peroxidase, were applied for 1 hr RT, the membrane washed with TBST and developed using an ECL detection reagent (FIG. 1B).
# QRFPR [4] = molecular target: T1, QRFPR; assay: In situ PLA detection of ACTRIIB-QRFPR proximity in MCF7 cells; conditions: serum-starved MCF7 cells, GDF15 20 minutes; FIG. 3A-B
# Method: MCF7 cells were stimulated with GDF15 (GDF15 from isolated mammalian source or recombinant derived from E. coli purchased from Abcam and Biovision). An assay was developed for monitoring the activity of GDF15 and to investigate the dynamics of receptor(s) such as QRFPR modulation by the ligand.
# Serum-starved MCF7 cells were treated with GDF15, and an in situ PLA detection assay was developed to detect the interaction between ACTRIIB and QRFPR using antibodies from two different species, thus allowing the use of Duolink secondary detection reagents. The presence of the QRFPR-ACTRIIB complex was detected in the absence of GDF15 (see FIG. 3A, indicated by arrows).
# CLPTM1 = molecular target: T2, CLPTM1 (Homo sapiens, UniProt O96005); assay: Detection of NKG2D in NK-92 cells after extended GDF15 stimulation; conditions: overnight GDF15 stimulation, FIG. 21A
# T2 construct: endogenous in cells; host or cells: NK-92 cells
# T2 sequence (O96005 1-669): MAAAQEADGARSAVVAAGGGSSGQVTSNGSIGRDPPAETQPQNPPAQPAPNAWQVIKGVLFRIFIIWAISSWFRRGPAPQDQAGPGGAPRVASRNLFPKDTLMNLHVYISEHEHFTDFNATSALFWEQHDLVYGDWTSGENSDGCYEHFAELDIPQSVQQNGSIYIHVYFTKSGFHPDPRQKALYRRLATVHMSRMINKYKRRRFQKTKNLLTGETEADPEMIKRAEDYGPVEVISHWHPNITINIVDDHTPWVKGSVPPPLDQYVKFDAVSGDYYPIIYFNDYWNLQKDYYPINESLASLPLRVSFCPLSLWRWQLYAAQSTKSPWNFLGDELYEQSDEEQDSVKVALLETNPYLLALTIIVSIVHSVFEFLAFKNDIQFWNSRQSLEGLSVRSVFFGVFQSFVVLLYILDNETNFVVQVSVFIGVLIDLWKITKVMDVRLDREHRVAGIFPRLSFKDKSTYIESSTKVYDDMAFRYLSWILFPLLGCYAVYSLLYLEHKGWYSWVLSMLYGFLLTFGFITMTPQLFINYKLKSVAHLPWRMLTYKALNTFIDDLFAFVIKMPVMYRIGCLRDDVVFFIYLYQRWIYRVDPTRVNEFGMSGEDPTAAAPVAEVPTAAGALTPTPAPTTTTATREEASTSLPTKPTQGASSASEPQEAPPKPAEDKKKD
# From the text: Based upon literature, the expression of CLPTM1 in immune cells such as CD8+T-lymphocytes and NK-92 cells, and the GDF15 induced proximity of CLPTM1 to TGFBRI-TGFBRII (through which TGFB1 signals), we investigated whether blockade of CLPTM1 by antibodies could affect the levels of the immune effector NKG2D in NK-92 cells that had been subjected to extended stimulation with GDF15. […] The decrease in NKG2D was reversed in NK-92 cells that had been pre-treated with a binding agent capable of binding to CLPTM1 (an antibody) prior to GDF15 stimulation (FIG. 21B). […] We propose that this may increase their cytotoxicity.
substance,measurement,setting,value
"GDF15: Growth and differentiation factor 15, from mammalian source or recombinant from E. coli (Abcam, Biovision)",EEA1-QRFPR proximity (RCA products),QRFPR [1],increase the number of RCA products
same,RAB11-QRFPR double positive endosomes,QRFPR [2],rapid detection of RAB11-QRFPR double positive endosomes
same,QRFPR in exosomes from conditioned medium,QRFPR [3],higher levels of QRFPR in conditioned medium
same,ACTRIIB-QRFPR in situ PLA signal,QRFPR [4],reduced by GDF15 treatment
same,levels of detectable NKG2D,CLPTM1,low levels of detectable NKG2D
